{
  "source": "paper PMC6355029",
  "about": "“Structure of the DP1–DP2 PolD complex bound with DNA and its implications for the evolutionary history of DNA and RNA polymerases”",
  "key": {"[1]": {"target": "Pyrococcus abyssi PolD DP1 subunit, exonuclease-deficient variant H451A, full length (Pyrococcus abyssi) (UniProt Q9V2F3)", "sequence (Q9V2F3 whole entry H451A)": "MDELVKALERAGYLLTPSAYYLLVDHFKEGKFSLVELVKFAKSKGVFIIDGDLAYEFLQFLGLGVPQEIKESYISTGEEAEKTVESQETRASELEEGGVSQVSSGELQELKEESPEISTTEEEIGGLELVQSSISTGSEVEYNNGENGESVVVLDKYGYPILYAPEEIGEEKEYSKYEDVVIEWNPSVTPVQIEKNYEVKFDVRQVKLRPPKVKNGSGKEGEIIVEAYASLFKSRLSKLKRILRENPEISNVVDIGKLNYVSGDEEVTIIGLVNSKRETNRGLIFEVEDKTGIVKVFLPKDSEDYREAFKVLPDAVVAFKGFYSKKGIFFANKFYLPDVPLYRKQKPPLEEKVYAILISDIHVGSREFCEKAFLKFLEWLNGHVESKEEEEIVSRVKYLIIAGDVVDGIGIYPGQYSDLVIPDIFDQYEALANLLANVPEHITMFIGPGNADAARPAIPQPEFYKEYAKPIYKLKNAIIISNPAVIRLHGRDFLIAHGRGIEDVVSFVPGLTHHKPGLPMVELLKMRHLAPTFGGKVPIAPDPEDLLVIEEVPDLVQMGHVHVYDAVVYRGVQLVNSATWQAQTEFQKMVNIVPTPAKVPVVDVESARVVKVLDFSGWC", "assay": "AUC; sedimentation velocity of the copurified PolD complex at 0.2, 0.5 and 1 mg/ml, 42,000 rpm, 20°C; continuous c(s) distribution (Sedfit); sediments at 8 S, frictional ratio 1.4"}, "[2]": {"target": "T1, PolD DP1 H451A (exonuclease-deficient small subunit);PolD DP2 (large catalytic subunit) (Pyrococcus abyssi;Pyrococcus abyssi, UniProt Q9V2F3;Q9V2F4;Q9V2F4 1-619;1-954;1140-1455, H451A|)", "T1 sequence (Q9V2F3 whole entry H451A, chain 1 of 3)": "as the sequence (Q9V2F3 whole entry H451A) above", "T1 sequence (Q9V2F4 1-954, chain 2 of 3)": "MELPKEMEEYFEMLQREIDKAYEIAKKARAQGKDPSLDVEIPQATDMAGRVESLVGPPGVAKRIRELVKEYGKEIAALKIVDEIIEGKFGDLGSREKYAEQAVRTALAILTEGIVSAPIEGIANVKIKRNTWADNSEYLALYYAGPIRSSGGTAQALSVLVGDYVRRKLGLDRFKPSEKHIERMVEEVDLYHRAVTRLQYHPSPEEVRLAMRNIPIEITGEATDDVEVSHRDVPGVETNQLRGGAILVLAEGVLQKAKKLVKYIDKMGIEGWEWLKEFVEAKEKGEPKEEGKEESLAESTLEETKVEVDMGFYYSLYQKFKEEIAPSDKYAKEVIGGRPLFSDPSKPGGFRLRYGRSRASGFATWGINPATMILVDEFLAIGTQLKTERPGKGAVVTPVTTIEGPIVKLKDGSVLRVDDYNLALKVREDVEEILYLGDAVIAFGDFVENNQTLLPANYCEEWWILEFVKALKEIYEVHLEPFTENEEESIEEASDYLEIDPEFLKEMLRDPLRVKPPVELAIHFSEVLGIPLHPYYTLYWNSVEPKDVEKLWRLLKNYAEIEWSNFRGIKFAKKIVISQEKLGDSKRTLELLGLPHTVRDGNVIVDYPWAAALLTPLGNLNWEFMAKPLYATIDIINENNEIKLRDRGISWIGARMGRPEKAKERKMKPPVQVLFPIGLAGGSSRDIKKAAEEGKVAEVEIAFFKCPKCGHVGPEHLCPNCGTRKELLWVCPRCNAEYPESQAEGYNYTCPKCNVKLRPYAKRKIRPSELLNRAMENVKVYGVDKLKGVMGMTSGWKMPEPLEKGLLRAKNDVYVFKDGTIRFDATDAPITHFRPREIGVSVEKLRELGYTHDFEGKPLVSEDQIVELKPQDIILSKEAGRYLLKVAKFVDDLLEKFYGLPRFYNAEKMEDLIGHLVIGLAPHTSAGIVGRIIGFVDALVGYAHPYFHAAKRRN", "T1 sequence (Q9V2F4 1140-1455, chain 3 of 3)": "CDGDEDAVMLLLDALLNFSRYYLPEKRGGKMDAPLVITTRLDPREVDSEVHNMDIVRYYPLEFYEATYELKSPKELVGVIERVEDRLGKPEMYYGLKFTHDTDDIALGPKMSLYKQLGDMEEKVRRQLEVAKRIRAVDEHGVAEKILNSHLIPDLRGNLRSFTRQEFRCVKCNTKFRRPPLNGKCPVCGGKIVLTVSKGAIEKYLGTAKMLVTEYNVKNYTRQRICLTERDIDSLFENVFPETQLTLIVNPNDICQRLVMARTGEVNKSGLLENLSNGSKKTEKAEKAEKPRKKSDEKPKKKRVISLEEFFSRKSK", "assay": "fluorescence anisotropy; Fluorescence anisotropy: 20 mM sodium succinate pH 6, 100 mM NaCl, 25 C, 5 nM HEX-DNA, PolD up to 600 nM, DP2(1-1061) up to 6 uM", "settings": "protein: recombinant;recombinant; tags: N-terminal 14xHis, TEV-cleaved;; copies: 1;1;1; 3'-HEX in assay text; 18 bp duplex, 5' overhang 7 nt on template"}, "[3]": {"target": "T1, PolD DP1 H451A (exonuclease-deficient …)", "assay": "cryo-EM structure; Zn2+ and Fe3+ in protein; no nucleotide; Fluorescence anisotropy: 20 mM sodium succinate pH 6, 100 mM NaCl, 25 C, 5 nM HEX-DNA, PolD up to 600 nM, DP2(1-1061) up to 6 uM", "settings": "protein: recombinant;recombinant; tags: N-terminal 14xHis, TEV-cleaved;; copies: 1;1;1; 15 bp duplex, 5' overhang 5 nt on template"}, "[4]": {"target": "T1, PolD DP1 H451A (exonuclease-deficient …)", "assay": "fluorescence anisotropy; Fluorescence anisotropy: 20 mM sodium succinate pH 6, 100 mM NaCl, 25 C, 5 nM HEX-DNA, PolD up to 600 nM, DP2(1-1061) up to 6 uM", "settings": "protein: recombinant;recombinant; tags: N-terminal 14xHis, TEV-cleaved;; copies: 1;1;1; 3'-HEX in assay text; blunt, 25 bp"}},
  "data": [
    {"molecule": "Pyrococcus abyssi PolD DP2 subunit, full length (from UniProt Q9V2F4 1-1455) (enzyme)", "values": [
      {"measurement": "stoichiometry N", "setting": "[1]", "result": 1}
    ]},
    {"molecule": "HEX primer/template (dsDNA) DNA 1: CGCCGGGCCGAGCCGTGC DNA 2: AGGTCGTGCACGGCTCGGCCCGGCG", "values": [
      {"measurement": "Kd", "setting": "[2]", "result": 15, "unit": "nM"}
    ]},
    {"molecule": "cryo-EM primer/template (dsDNA) DNA 1: GAGACGGGCCGCGTC DNA 2: ACTTTGACGCGGCCCGTCTC", "values": [
      {"measurement": "binding result", "setting": "[3]", "result": "binds"}
    ]},
    {"molecule": "HEX dsDNA (dsDNA) DNA 1: CGCCGGGCCGAGCCGTGCACGACCT DNA 2: AGGTCGTGCACGGCTCGGCCCGGCG", "values": [
      {"measurement": "binding signal", "setting": "[4]", "result": "6.5 fold weaker Kd than primer-template"}
    ]}
  ]
}
